Laboratory results as given in PMC3794156, “Structure of the ParM filament at 8.5 Å resolution” (Journal of Structural Biology, 2013).

Target: the molecule itself
Assay: cryo-EM structure; 30 uM ParM in polymerisation buffer (30 mM Tris-HCl, 25 mM KCl, 2 mM MgCl2, 1 mM DTT, pH 7.5) with 5 mM AMPPNP, 5 min at room temperature; filaments spun down and resuspended; helical reconstruction at 8.5 Å

B1: ParM (actin-like protein of the ParMRC system of Escherichia coli R1 plasmid), wild type (natural protein)
chain: MLVFIDDGSTNIKLQWQESDGTIKQHISPNSFKREWAVSFGDKKVFNYTLNGEQYSFDPISPDAVVTTNIAWQYSDVNVVAVHHALLTSGLPVSEVDIVCTLPLTEYYDRNNQPNTENIERKKANFRKKITLNGGDTFTIKDVKVMPESIPAGYEVLQELDELDSLLIIDLGGTTLDISQVMGKLSGISKIYGDSSLGVSLVTSAVKDALSLARTKGSSYLADDIIIHRKDNNYLKQRINDENKISIVTEAMNEALRKLEQRVLNTLNEFSGYTHVMVIGGGAELICDAVKKHTQIRDERFFKTNNSQYDLVNGMYLIGN
notes: ParM, plasmid segregation protein of actin fold, encoded by Escherichia coli R1 plasmid; Forms double-helical filaments of two protofilaments with AMPPNP or ATP; also called ParM protein; wild type protein; source: E. coli BL21-AI, plasmid pJSC1, in cell lysate for the polymerisation assay
binding result: binds
